{
  "source": "the nanobody polyreactivity screen of Harvey et al. (2022)",
  "data": [
    {"experiment": "yeast display, Sf9 membrane polyspecificity reagent, FACS + sequencing; frameworks hold sequencing errors", "method_in_brief": "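Polyreactivity labels are assigned by the sorting gate from which each nanobody was recovered. The gates were low and high (top ~1%), set on anti-HA fluorescence for expression and streptavidin fluorescence for reagent binding. Before sorting, galactose-induced (36–48 hours) yeast display cells were stained for 1 hour at 4 °C with 10% biotinylated, detergent-solubilized Sf9 membrane reagent.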", "values": [
      {"sequence": "QVQLVESGGGLVQAGGSLRLSCAASGSIFYIYAMGWYRQAPGKERELVAAINWSGGDTYYADSVKGRFTISRDNAKNTVYLQMNSLKPEDTAVYYCAALLDSEYEYWGQGTQVTVSS", "polyreactivity (PSR sort gate)": "high polyreactivity"},
      {"sequence": "QVQLVESGGGLVQAGGSLRLSCAASGSIFYIYAMGWYRQAPGKERELVAAISWSGSSTYYADSVKGRFTISRDNAKHTVYLQMNSLKPEDTAVYYCAADTGYGVRYYYWGQGTQVTVSS", "polyreactivity (PSR sort gate)": "high polyreactivity"},
      {"sequence": "QVQLVESGGGLVQAGGSLRLSCAASGSIFYIYAMGWYRQAPGKERELVAAITSSVGRTYYADSVKGRFTISRDNAKNTFYLQMNSLKAEDTAVYYCAADYYYSQVAYVYWGHGTQVTVSS", "polyreactivity (PSR sort gate)": "high polyreactivity"},
      {"sequence": "QVQLVESGGGLVQAGGSLRLSCAASGSIFYKYAMGWYRQAPGKERELVAAISGSGGRTYYADSVKGRFTISRDNAKNTVYLQMNSLKPEDTAVYYCAAAKRTWRSDYWGQGTQVTVSS", "polyreactivity (PSR sort gate)": "high polyreactivity"},
      {"sequence": "QVQLVESGGGLVQAGGSLRLSCAASGSIFYKYTMGWYRQAPGKERELVAAITRSGGSTYYADSVKGRFTISRDNAKNTVYLQMNSLKPEDTAVYYCAAERASFRYQDYYIYDYWGQGTQVTVSS", "polyreactivity (PSR sort gate)": "high polyreactivity"},
      {"sequence": "QVQLVESGGGLVQAGGSLRLSCAASGSIFYLNAMGWYRQAPGKERDLVAAIRWSGGSTRYADSVKGRCTISRDNAKNTVYLQMNSLKPEDTAVYYCAKYNPVLVYHWWYYYWGQGTQVTVSS", "polyreactivity (PSR sort gate)": "high polyreactivity"},
      {"sequence": "QVQLVESGGGLVQAGGSLRLSCAASGSIFYLNARGWYRQAPGKERELVASINRGGITYYADSVKGRFTISRDNAKNTVYLQMNSLKPEDTAVYYCAARSPYVSYRSNYYYWGQGTQVTVSS", "polyreactivity (PSR sort gate)": "high polyreactivity"},
      {"sequence": "QVQLVESGGGLVQAGGSLRLSCAASGSIFYLYAMGWYRQAPGKERELVAAISESGSTTYYADSVKGRFTISRDNAKNTVYLQMNSLKPEDTAVYYCARLGTYTVVTYDYWGQGTQVTVSS", "polyreactivity (PSR sort gate)": "low polyreactivity"},
      {"sequence": "QVQLVESGGGLVQAGGSLRLSCAASGSIFYLYAMGWYRQAPGKERELVAAITSIGGSTYADSVKGRFTISRDNAKNTVYLQMYSLKPEDTAVYYCNTDEYPLTVQVQYYYWGQGTQVTVSS", "polyreactivity (PSR sort gate)": "low polyreactivity"},
      {"sequence": "QVQLVESGGGLVQAGGSLRLSCAASGSIFYNAMGWYRQAPGKERELVAAISQRGTRTYYADSVKGRFTISRDNAKKTVYLQMNSLKPEDTAVYYCNRGGWRQYDSWGQGTQVTVSS", "polyreactivity (PSR sort gate)": "high polyreactivity"},
      {"sequence": "QVQLVESGGGLVQAGGSLRLSCAASGSIFYNNAMGWYRQAPGKERELVAAITIGGSTNYADSVKGRFTISRDNAKNTVYLQMNSLNPEDTAVYYCAAAVLYWVGYGYWGQGTQVTVSS", "polyreactivity (PSR sort gate)": "low polyreactivity"},
      {"sequence": "QVQLVESGGGLVQAGGSLRLSCAASGSIFYNYAMGWYRQAPGKEREFVAGITRSGGTTSYADSVKGRFTISRDNAKNTVYLQMNSLKPEDTAVYYCAAVVYLQAWYGYWDYYYWGQGTQVTVSS", "polyreactivity (PSR sort gate)": "high polyreactivity"},
      {"sequence": "QVQLVESGGGLVQAGGSLRLSCAASGSIFYPNAMGWYRQAPGKEREFVAAISKSGGNTYYADSVKGRFTISRDNAKNTVYLQMNSLKPEDTAVYYCAARTQAFSRKGYGYWGQGTQVTVSS", "polyreactivity (PSR sort gate)": "high polyreactivity"},
      {"sequence": "QVQLVESGGGLVQAGGSLRLSCAASGSIFYPYAMGWYRQAPGKERELLASITINDGSTYYADSVKGRFTISRDNAKNTVYLQMNSLKPEDTAVYYCNVEPVPGFGSEYEYWGQGTQVTVSS", "polyreactivity (PSR sort gate)": "low polyreactivity"},
      {"sequence": "QVQLVESGGGLVQAGGSLRLSCAASGSIFYPYAMGWYRQAPGKERELVAGITYRAGSTYYADSVKGRFTISRDNAKNTVYLQMNSLKPEDTAVYYCAASQSYAFDWGQGTQVTVSS", "polyreactivity (PSR sort gate)": "high polyreactivity"},
      {"sequence": "QVQLVESGGGLVQAGGSLRLSCAASGSIFYPYAMGWYRQAPGKERELVATISSGGRTNYADSVKGRFTISRDNAKNTVYLQMNSLKPEDTAVYYCAKDRYPTSWWFRRRDYWGQGTQVTVSS", "polyreactivity (PSR sort gate)": "high polyreactivity"},
      {"sequence": "QVQLVESGGGLVQAGGSLRLSCAASGSIFYPYAMGWYRQAPGKERQLVAAISYSGGSTYYADSVKGRFTISRDNAKNTVYLQMNSLKPEDTAVYYCAADVTAGDGRNDYWGIGTQVTVSS", "polyreactivity (PSR sort gate)": "low polyreactivity"},
      {"sequence": "QVQLVESGGGLVQAGGSLRLSCAASGSIFYPYTMGWYRQAPGKEREFVAAITGGGGRTYYADSVKGRFTISRDNAKNTVYLQMNSLKPEDTAVYYCATDTYDVNVWELGMDYWGQGTQVTVSS", "polyreactivity (PSR sort gate)": "low polyreactivity"},
      {"sequence": "QVQLVESGGGLVQAGGSLRLSCAASGSIFYPYTMGWYRQAPGKETEFVARITWSGGSTYYADSVKGRFTISRDNAKNTVYLQMNSLKPEDSAVYYCARVAWSESDWQKMDYWGQGTQVTVSS", "polyreactivity (PSR sort gate)": "high polyreactivity"},
      {"sequence": "QVQLVESGGGLVQAGGSLRLSCAASGSIFYQNALGWYRQAPGKETELVAAMSRSGGSTYYADSVKGRFTISRDNAKNTVYLQMNSLKPEDTAVYYCAARISRQRSYSRDYWGQGTQVTVSS", "polyreactivity (PSR sort gate)": "high polyreactivity"},
      {"sequence": "QVQLVESGGGLVQAGGSLRLSCAASGSIFYRNAMGWYRQAPGKERELVAAISASGGSTYYADSVKGRFTISRDNAKNTVYLQMNSLKPEDTAVYYCAASRYYSRYDYWGQGTQVTVSS", "polyreactivity (PSR sort gate)": "high polyreactivity"},
      {"sequence": "QVQLVESGGGLVQAGGSLRLSCAASGSIFYRNAMGWYRQAPGKERELVAAISGRGGSTYYADSVKGRFTISRDYAKNTVYLQMYSLKPEDTAVYYCAKDHYRERKYDYWGQGTQVTVSS", "polyreactivity (PSR sort gate)": "low polyreactivity"},
      {"sequence": "QVQLVESGGGLVQAGGSLRLSCAASGSIFYRNAMGWYRQAPGKERELVAAISRSGGSTYYADSVKGRFTISRDNAKNTVYLQMNSLKPEDTAVYYCAKARPLGGTPSNGFDYWGQGTQVTVSS", "polyreactivity (PSR sort gate)": "high polyreactivity"},
      {"sequence": "QVQLVESGGGLVQAGGSLRLSCAASGSIFYRNAMGWYRQAPGKERELVAAITRSDGRTYYADSVKGRFTISRDNAKNTVYLQMNSLKPEDTAVYYCNADHPFPQYEGGSWGQGTQVTVSS", "polyreactivity (PSR sort gate)": "low polyreactivity"},
      {"sequence": "QVQLVESGGGLVQAGGSLRLSCAASGSIFYRNRMGWYRQAPGKERELVAAIRYSGDNTYYADSVKGRFTISRDNAKNTVYLQMNSLKPEDTAVYYCAADFPDYEYWGQGTQVTVSS", "polyreactivity (PSR sort gate)": "high polyreactivity"},
      {"sequence": "QVQLVESGGGLVQAGGSLRLSCAASGSIFYRNTMGWYRQAPGKERELVAAITYSGGSTYYADSVKGRFTISRDNAKNTVYLQMNSLKPEDTAVYYCAVTDFYSYLLRYDSWGQGTQVTVSS", "polyreactivity (PSR sort gate)": "low polyreactivity"},
      {"sequence": "QVQLVESGGGLVQAGGSLRLSCAASGSIFYRNTMGWYRQAPGKERELVASINTGTGTYYADSVKGRFTISRDNAKNTVYLQMNSLKPEDTAVYYCNSKGWVWPFPSYYPYDSWGQGTQVTVSS", "polyreactivity (PSR sort gate)": "high polyreactivity"},
      {"sequence": "QVQLVESGGGLVQAGGSLRLSCAASGSIFYRNTMGWYRQATGKERELVARISNGGSTNYADSVKGRFTISRDNAKNTVYLQMNSLKPEDTAVYYCNARRGSATHSVTARRGYWGQGTQVTVSS", "polyreactivity (PSR sort gate)": "high polyreactivity"},
      {"sequence": "QVQLVESGGGLVQAGGSLRLSCAASGSIFYRYAMGWSRQAPGKERELVAYISSGVSTNYADSVKGRFTISRDNAKKTVYLQMNSLKPEDTAVYYCAVRHSYTRAYWGRDFWGQGTQVTVSS", "polyreactivity (PSR sort gate)": "low polyreactivity"},
      {"sequence": "QVQLVESGGGLVQAGGSLRLSCAASGSIFYRYAMGWYREAPGKERELVAAISSSGGSTYYADSVKGRFTISRDNAKNTVYSQMNSLKPEDTAVYYCNTDRYYTYDYWGQGTQVTVSS", "polyreactivity (PSR sort gate)": "low polyreactivity"},
      {"sequence": "QVQLVESGGGLVQAGGSLRLSCAASGSIFYRYAMGWYRQAPGKERELVAAITQSTDSTYYADSVKGRFTISRDNAKNTVYLQMNSLKPEDSAVYYCDAYLVYYRPYAYGYWGQGTQVTVSS", "polyreactivity (PSR sort gate)": "low polyreactivity"},
      {"sequence": "QVQLVESGGGLVQAGGSLRLSCAASGSIFYRYARGWYRQAPGKERELVAAISYNGGRTYYADSVKGRFTISRDNAKNTVYLQMNSLKPEDTAVYYCNAAGRDDAYDYWGQGTQVTVSS", "polyreactivity (PSR sort gate)": "high polyreactivity"},
      {"sequence": "QVQLVESGGGLVQAGGSLRLSCAASGSIFYRYTMGWSRQAPGKERELVAAITYSGGSTYYADSVKGRFTISRDNAKNTVYLQMNSLIPEDTAVYYCNKDYYSGQSGYNYWGQGTQVTVSS", "polyreactivity (PSR sort gate)": "low polyreactivity"},
      {"sequence": "QVQLVESGGGLVQAGGSLRLSCAASGSIFYRYTMGWYRQAPVTERELVAVISRRGGSTYYADSVKGRFTISRDNEKNTVYLQMNRLKPEDTAVYYCAVPQYRTSVRQGNTLWDDYWGQGTQVTVSS", "polyreactivity (PSR sort gate)": "high polyreactivity"},
      {"sequence": "QVQLVESGGGLVQAGGSLRLSCAASGSIFYRYTMGWYRQARGKERELVAAISSDGGSTYYADSVKGRFTISRDNAKKTVYLQMNSLKPEDTAVYYCAAGQDGHSDWGQGTQVTVSS", "polyreactivity (PSR sort gate)": "low polyreactivity"},
      {"sequence": "QVQLVESGGGLVQAGGSLRLSCAASGSIFYSNAMGWSRPAPGKEWELVAGITWTGGSTYYADSVKGRFTISRDNAKNTVYLQMNSLKPEYTEVYYCADRVYYRTVLGGYYYWGQGTQVTVSS", "polyreactivity (PSR sort gate)": "low polyreactivity"},
      {"sequence": "QVQLVESGGGLVQAGGSLRLSCAASGSIFYSNAMGWYRQAPGKEREFVAAISAGGGSTYYADSVKGRFTISRDHSKNTVYFQMNSLKPEDTAVYYCAKGPLPRAGVKFDYWGQGTQVTVSS", "polyreactivity (PSR sort gate)": "low polyreactivity"},
      {"sequence": "QVQLVESGGGLVQAGGSLRLSCAASGSIFYSNAMGWYRQAPGKERELVAAISVSGVSTYYADSVKGRFTISRDNAKNTVYLQMNSLKPEDTAVYYCAADTGYRYDDYYWWGGEYDYWGQGTQVTVSS", "polyreactivity (PSR sort gate)": "low polyreactivity"},
      {"sequence": "QVQLVESGGGLVQAGGSLRLSCAASGSIFYSYAMGRYRQAPGKERELVAAITKSSGSTYYADSVKGRFTISRDNAKNTVYLQMNSLKPEDTAVYYCAATRYRPVRLYYWGQGTQVTVSS", "polyreactivity (PSR sort gate)": "high polyreactivity"},
      {"sequence": "QVQLVESGGGLVQAGGSLRLSCAASGSIFYSYAMGWYRQAPGKEREFVAAISWSASRTYYADSVKGRFTISRDNAKNTVYLQMNSLKPADTAVYDCAARTYYNRGYYYWGQGTQVTVSS", "polyreactivity (PSR sort gate)": "high polyreactivity"},
      {"sequence": "QVQLVESGGGLVQAGGSLRLSCAASGSIFYSYAMGWYRQAPGKERELVADITSSGGSTYYADSVKGRFTISRDNAKNTVYFQMNSLKPEDTAVYYCAASSPAFYGMRYNYWGHGTQVTVSS", "polyreactivity (PSR sort gate)": "low polyreactivity"},
      {"sequence": "QVQLVESGGGLVQAGGSLRLSCAASGSIFYTNAMGWYRQAPGKERELFASISRRGGSTYYADSVKGRFTISRDNAKNTVYLQMNSLKPEDTAVYYFATDGYTPYRWLWWLMDYWGQGTQVTVSS", "polyreactivity (PSR sort gate)": "high polyreactivity"},
      {"sequence": "QVQLVESGGGLVQAGGSLRLSCAASGSIFYTNAMGWYRQAPGKERELVAAIRWSGGRTYYADSVKGRFTISRDNAKNSVYLQMNSLKPEDTAVYYCNKVPRTPIPYKYGYWGQGTQVTVSS", "polyreactivity (PSR sort gate)": "high polyreactivity"}
    ]}
  ]
}
